Experimental data published in patent US20210324076A1 (AMPHIVENA THERAPEUTICS, published 2021).
Changes are numbered by the printed parent chain.

B1: CD33/CD3 2×2 T-cell engager 07 (bispecific antibody)
chain: DIQMTQSPSSLSASVGDRVTITCRSSTGAVTTSNYANWVQQKPGKAPKALIGGTNKRAPGVPSRFSGSLIGDKATLTISSLQPEDFATYYCALWYSNLWVFGQGTKVEIKGGSGGSQVQLQESGGGVVQPGRSLRLSCAASGFSFSNYGIHWVRQAPGKGLEWVALISYDGNKKFYADSVKGRFAISRDTSKNTVDLQMTSLRPEDTAVYYCAKDRLESAAFDYWGQGTLVTVSSGGSGGSSYELTQPPSVSVAPGQTAMITCGGNNIGSTTVHWYQQKPGQAPVLVVYDDNERPSGIPERFSGSNSGSTATLTINRVEAGDEADYYCQVWDSGSDHVVFGGGTKLTVLGGSGGSEVQLVESGGGLVQPGGSLRLSCAASGFTFSTYAMNWVRQAPGKGLEWVGRIRSKYNNYATYYADSVKDRFTISRDDSKNSLYLQMNSLKTEDTAVYYCARHGNFGNSYVSYFAYWGQGTLVTVSSAAAGSHHHHHH
B2: CD33/CD3 2×2 T-cell engager 23 (bispecific antibody)
chain: DIQMTQSPSSLSASVGDRVTITCRSSTGAVTTSNYANWVQQKPGKAPKGLIGGTNKRAPGVPSRFSGSLIGTDFTLTISSLQPEDFATYYCALWYSNLWVFGQGTKVEIKGGSGGSQVQLVQSGAEVKKPGSSVKVSCKASGGTFSSYGISWVRQAPGQGLEWMGGIIPIFGSAHYAQKFQGRVTITADESTSTAYMELSSLRSEDTAVYYCAREYYYDSSEWAFDIWGQGTLVTVSSGGSGQSVLTQPPSASGTPGQRVTISCSGSSSNIGSNTVKWYQQLPGTAPKLLIYSNNQRSSGVPDRFSGSKSGSSASLAISGLQSEDEADYYCAAWDDSLNGYVFGGGTKLTVLGGSGGSEVQLVESGGGLVQPGGSLRLSCAASGFTFSTYAMNWVRQAPGKGLEWVGRIRSKYNNYATYYADSVKDRFTISRDDSKNSLYLQMNSLKTEDTAVYYCARHGNFGNSYVSWFAYWGQGTLVTVSS
B3: CD33/CD3 2×2 T-cell engager 13 (bispecific antibody)
chain: DIQMTQSPSSLSASVGDRVTITCRSSTGAVTTSNYANWVQQKPGKAPKGLIGGTNKRAPGVPSRFSGSLIGTDFTLTISSLQPEDFATYYCALWYSNLWVFGQGTKVEIKGGSGGSQVQLVQSGAEVKKPGASVKVSCKASGYTFTSYDINWVRQAPGQGLEWMGWMNPNSGNTGFAQKFQGRVTMTRDTSTSTVYMELSSLRSEDTAVYYCARDRAVTDYYYGMDVWGQGTLVTVSSGGSGQSVLTQPPSASGTPGQRVTISCSGSRSNIGSNTVNWYQQLPGTAPKLLIYGNNQRPSGVPDRFSGSKSGTSASLAISGLQSEDEADYYCATWDDSLIGWVFGGGTKLTVLGGSGGSEVQLVESGGGLVQPGGSLRLSCAASGFTFSTYAMNWVRQAPGKGLEWVGRIRSKYNNYATYYADSVKDRFTISRDDSKNSLYLQMNSLKTEDTAVYYCARHGNFGNSYVSWFAYWGQGTLVTVSSAAAGSHHHHHH
B4: CD33/CD3 2×2 T-cell engager 15 (bispecific antibody)
chain: B3 chain with G49A, T72D, D73K, F74A, V218N, Y222S, Y223F, W469Y
B5: CD33/CD3 2×2 T-cell engager 05 (bispecific antibody)
chain: DIQMTQSPSSLSASVGDRVTITCRSSTGAVTTSNYANWVQQKPGKAPKGLIGGTNKRAPGVPARFSGSGSGTDFTLTISSLQPEDFATYYCALWYSNLWVFGQGTKVEIKGGSGGSQVQLVQSGAEVKKPGASVKVSCKASGYTFTSYDINWVRQAPGQGLEWMGWMNPNSGNTGFAQKFQGRVTMTRDTSTSTVYMELSSLRSEDTAVYYCARDRANTDYSFGMDVWGQGTLVTVSSGGSGGQSVLTQPPSASGTPGQRVTISCSGSRSNIGSNTVNWYQQLPGTAPKLLIYGNNQRPSGVPDRFSGSKSGTSASLAISGLQSEDEADYYCATWDDSLIGWVFGGGTKLTVLGGSGGSEVQLVESGGGLVQPGGSLRLSCAASGFTFSTYAMNWVRQAPGKGLEWVGRIRSKYNNYATYYADSVKDRFTISRDDSKNSLYLQMNSLKTEDTAVYYCARHGNFGNSYVSWFAYWGQGTLVTVSSAAAGSHHHHHH
B6: CD33/CD3 2×2 T-cell engager 06 (bispecific antibody)
chain: B5 chain with F223L
B7: CD33/CD3 2×2 T-cell engager 17 (bispecific antibody)
chain: DIQMTQSPSSLSASVGDRVTITCRSSTGAVTTSNYANWVQQKPGKAPKALIGGTNKRAPGVPSRFSGSLIGDKATLTISSLQPEDFATYYCALWYSNLWVFGQGTKVEIKGGSGGSQVQLVQSGAEVKKPGESLKISCKGSGYSFTSYWIGWVRQMPGKGLEWMGIIYPGDSDTRYSPSFQGQVTISADKSISTAYLQWSSLKASDTAMYYCARHKRGSDAFDIWGQGTTVTVSSGGSGQSVLTQPPSVSGAPGQRVTISCTGSSSNIGAGYDVHWYQQLPGTAPKLLIYGNSNRPSGVPDRFSGSKSGTSASLAITGLQAEDEADYYCQSYDSSLSDVVFGGGTKLTVLGGSGGSEVQLVESGGGLVQPGGSLRLSCAASGFTFSTYAMNWVRQAPGKGLEWVGRIRSKYNNYATYYADSVKDRFTISRDDSKNSLYLQMNSLKTEDTAVYYCARHGNFGNSYVSYFAYWGQGTLVTVSSAAAGSHHHHHH
B8: CD33/CD3 2×2 T-cell engager 21 (bispecific antibody)
chain: DIQMTQSPSSLSASVGDRVTITCRSSTGAVTTSNYANWVQQKPGKAPKALIGGTNKRAPGVPSRFSGSLIGDKATLTISSLQPEDFATYYCALWYSNLWVFGQGTKVEIKGGSGGSQVQLVQSGAEVKKPGSSVKVSCKASGGTFSSYAISWVRQAPGQGLEWMGGIYPIFGSANYAQKFQGRVTITADESTSTAYMELSSLRSEDTAVYYCAREYYYDSSEWAFDIWGQGTLVTVSSGGSGQSVLTQPPSASGTPGQRVTISCSGSSSNIGSNIVNWYQQLPGTAPKLLIYSNNQRPSGVPDRFSGSKSGTSASLAISGLQSEDEADYYCAAWDDSLKGYVFGGGTKLTVLGGSGGSEVQLVESGGGLVQPGGSLRLSCAASGFTFSTYAMNWVRQAPGKGLEWVGRIRSKYNNYATYYADSVKDRFTISRDDSKNSLYLQMNSLKTEDTAVYYCARHGNFGNSYVSYFAYWGQGTLVTVSSAAAGSHHHHHH
B9: CD33/CD3 2×2 T-cell engager 24 (bispecific antibody)
chain: DIQMTQSPSSLSASVGDRVTITCRSSTGAVTTSNYANWVQQKPGKAPKALIGGTNKRAPGVPSRFSGSLIGDKATLTISSLQPEDFATYYCALWYSNLWVFGQGTKVEIKGGSGGSQVQLVQSGAEVKKPGSSVKVSCKASGGTFDSYAISWVRQAPGQGLEWMGGIIPIFGSAHYSQKFQGRVTITADESTSTAYMELSSLRSEDTAVYYCAREYYYDSSEWAFDIWGQGTLVTVSSGGSGQSVLTQPPSASGTPGQRVTISCSGSSSNIGDNVVNWYQQLPGTAPKLLIYSTNKRPSGVPDRFSGSKSGSSASLAISGLQSEDEADYYCAAWDDSLSAYVFGGGTKLTVLGGSGGSEVQLVESGGGLVQPGGSLRLSCAASGFTFSTYAMNWVRQAPGKGLEWVGRIRSKYNNYATYYADSVKDRFTISRDDSKNSLYLQMNSLKTEDTAVYYCARHGNFGNSYVSYFAYWGQGTLVTVSSAAAGSHHHHHH
B10: CD33/CD3 2×2 T-cell engager 22 (bispecific antibody)
chain: B8 chain with A149G, Y168I, N175H, I275T, N277K, P298S, T312S, K339N
B11: CD33/CD3 2×2 T-cell engager 19 (bispecific antibody)
chain: DIQMTQSPSSLSASVGDRVTITCRSSTGAVTTSNYANWVQQKPGKAPKALIGGTNKRAPGVPSRFSGSLIGDKATLTISSLQPEDFATYYCALWYSNLWVFGQGTKVEIKGGSGGSQVQLVQSGAEVKKPGASVKVSCKASGYTFTSYYMHWVRQAPGQGLEWMGIINPSGGSTSYAQKFQGRVTMTRDTSTSTVYMELSSLRSEDTAVYYCARDVVPAAIDYYGMDVWGQGTTVTVSSGGSGQSVLTQPPSASGTPGQRVTISCSGSSSNIGSNTVNWYQQLPGTAPKLLIYSDNQRPSGVPDRFSGSKSGSSASLAISGLQSDDEADYYCATWDDSLNGAVFGGGTKLTVLGGSGGSEVQLVESGGGLVQPGGSLRLSCAASGFTFSTYAMNWVRQAPGKGLEWVGRIRSKYNNYATYYADSVKDRFTISRDDSKNSLYLQMNSLKTEDTAVYYCARHGNFGNSYVSYFAYWGQGTLVTVSSAAAGSHHHHHH
B12: CD33/CD3 2×2 T-cell engager 20 (bispecific antibody)
chain: B11 chain with A49G, D72T, K73D, A74F, Y470W

Assays:
[1] = molecular target: human CD3 (human, UniProt P07766 23-207; P09693 23-182; P04234 22-171; P20963 22-164); assay: cell-based or functional assay
[2] = molecular target: human CD33 (human, UniProt P20138 18-364); assay: cell-based or functional assay
human CD33, sequence (P20138 18-364): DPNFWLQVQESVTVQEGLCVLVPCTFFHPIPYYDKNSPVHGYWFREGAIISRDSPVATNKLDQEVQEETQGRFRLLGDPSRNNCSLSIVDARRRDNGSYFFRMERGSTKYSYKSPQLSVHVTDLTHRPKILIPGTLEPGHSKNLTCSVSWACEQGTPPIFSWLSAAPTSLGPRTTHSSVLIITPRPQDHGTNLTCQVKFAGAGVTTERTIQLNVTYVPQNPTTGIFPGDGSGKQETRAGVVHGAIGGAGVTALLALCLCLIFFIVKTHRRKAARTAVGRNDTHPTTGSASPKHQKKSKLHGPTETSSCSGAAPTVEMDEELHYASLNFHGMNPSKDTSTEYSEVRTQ

human CD3, sequence (P07766 23-207, chain 1 of 4): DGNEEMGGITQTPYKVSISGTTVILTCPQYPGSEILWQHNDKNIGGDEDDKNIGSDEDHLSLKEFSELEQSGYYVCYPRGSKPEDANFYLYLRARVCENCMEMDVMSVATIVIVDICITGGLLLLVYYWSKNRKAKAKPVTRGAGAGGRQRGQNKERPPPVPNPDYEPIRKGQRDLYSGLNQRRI
human CD3, sequence (P09693 23-182, chain 2 of 4): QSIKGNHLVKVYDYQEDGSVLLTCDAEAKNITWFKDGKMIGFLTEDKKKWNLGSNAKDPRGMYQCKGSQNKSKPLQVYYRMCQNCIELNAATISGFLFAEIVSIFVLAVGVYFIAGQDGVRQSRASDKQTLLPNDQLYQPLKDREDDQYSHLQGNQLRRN
human CD3, sequence (P04234 22-171, chain 3 of 4): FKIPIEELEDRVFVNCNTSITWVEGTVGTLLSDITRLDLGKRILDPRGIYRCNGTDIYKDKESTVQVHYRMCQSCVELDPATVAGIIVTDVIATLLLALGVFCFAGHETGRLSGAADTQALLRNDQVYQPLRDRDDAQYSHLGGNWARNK
human CD3, sequence (P20963 22-164, chain 4 of 4): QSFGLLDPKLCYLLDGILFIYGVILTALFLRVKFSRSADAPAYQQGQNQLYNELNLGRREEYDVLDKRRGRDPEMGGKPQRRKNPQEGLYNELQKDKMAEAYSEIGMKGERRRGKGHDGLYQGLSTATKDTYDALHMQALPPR

Row | Binder | CD25 Induction EC50 (PBMC, 24 h) [1] | CD69 Induction EC50 (PBMC, 24 h) [1] | IC50 lysis of KG-1 cells with human T cells, E:T 5:1, 24 h [2]
1 | B1 | 0.134 nM | 0.065 nM | –
2 | B2 | 0.041 nM | 0.017 nM | –
3 | B3 | 0.03 nM | 0.022 nM | –
4 | B4 | 0.006 nM | 0.007 nM | –
5 | B5 | 0.116 nM | 0.074 nM | –
6 | B6 | 0.039 nM | 0.021 nM | –
7 | B7 | 0.03 nM | 0.114 nM | –
8 | B8 | – | 0.225 nM | –
9 | B9 | – | 0.057 nM | –
10 | B10 | 0.01 nM | 0.004 nM | –
11 | B11 | 0.009 nM | 0.005 nM | ~0.005 nM
12 | B12 | 0.098 nM | 0.075 nM | –
